{
  "source": "patent US20090029370A1",
  "about": "(TRUSTEES OF BOSTON UNIVERSITY, published 2009)",
  "binders": {"B1": {"name": "beta-fragment of EGFP (betaCys-fragment, 159-234 aa) without oligonucleotide (other)", "chain": "not shown", "notes": "range 159-234; also called β-subunit of EGFP"}},
  "biological_target": "T1, alpha-fragment of EGFP (alphaCys-fragment, 1-158) without oligonucleotide (Aequorea victoria, UniProt P42212 1-158 = GFP)",
  "T1 construct": "range 1-158; also called α-subunit of EGFP",
  "assay": "fluorescence spectra after mixing the fragments in vitro",
  "data": [
    {"binder": "B1", "values": [
      {"measurement": "binding result", "result": "no binding"}
    ]}
  ]
}
